T1: Human CXCR2 (human, UniProt P25025 1-360)
T1 construct: Some cell lines carry an N-terminal 3xHA tag; also called hCXCR2; huCXCR2
T1 sequence: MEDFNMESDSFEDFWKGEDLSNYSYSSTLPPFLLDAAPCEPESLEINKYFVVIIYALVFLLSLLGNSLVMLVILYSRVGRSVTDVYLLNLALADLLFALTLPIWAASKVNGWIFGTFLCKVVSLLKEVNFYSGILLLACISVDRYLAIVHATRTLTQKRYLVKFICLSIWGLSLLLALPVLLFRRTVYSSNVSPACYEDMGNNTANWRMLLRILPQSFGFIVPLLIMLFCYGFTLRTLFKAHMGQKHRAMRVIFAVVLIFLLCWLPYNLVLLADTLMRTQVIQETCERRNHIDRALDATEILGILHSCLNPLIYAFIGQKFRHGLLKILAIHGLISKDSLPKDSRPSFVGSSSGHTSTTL

T2: Cynomolgus CXCR2 (cynomolgus, UniProt Q28519 3-353 (rhesus entry))
T2 construct: On transfected HEK293T or RBL-2H3 cells; native on cynomolgus neutrophils in the WBSC assay; also called cCXCR2; cynoCXCR2
T2 chain: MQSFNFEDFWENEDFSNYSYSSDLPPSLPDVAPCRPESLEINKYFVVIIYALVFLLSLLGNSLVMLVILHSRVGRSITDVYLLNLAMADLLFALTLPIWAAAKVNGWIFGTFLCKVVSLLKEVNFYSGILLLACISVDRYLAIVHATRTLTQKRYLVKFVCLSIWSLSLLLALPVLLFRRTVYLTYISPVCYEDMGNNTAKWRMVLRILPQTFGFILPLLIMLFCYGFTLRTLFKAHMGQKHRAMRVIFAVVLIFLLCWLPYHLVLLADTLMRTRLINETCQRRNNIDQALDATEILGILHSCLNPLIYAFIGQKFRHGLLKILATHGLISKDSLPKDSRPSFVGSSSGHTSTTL

B1: CXCR20028 (other)
chain: EVQLVESGGGLVQPGGSLRLSCVASGSIVRINTMGWYRQTPGKQRELVADITSGGNINYIDAVKGRFTISRDNTKNTVYLQMNSLKPEDTAVYYCNAEIVVLVGVWTQRARTGNYWGQGTQVTVSSGGGGSGGGGSGGGGSGGGGSGGGGSGGGGSGGGGSEVQLVESGGGLVQAGGSLTLSCAVSGSTFRINTMGWYRRAPGKQRELVAARDRGGYINYVDSVKGRFTVSRDNAKPTMYLQMNSLKPEDTAVYYCHAGTQDRTGRNFDRWGQGTQVTVSS
notes: Biparatopic: two VHH joined by a GlySer linker; also called 97A9-35GS-54B12; 97A9-54B12; not shown: C-terminal c-myc tag and His6 tag coded by pAX100
B2: CXCR20030 (other)
chain: EVQLVESGGGLVQAGGSLRLSCAASGRTFSDYAMGWFRQAPGKEREFVAAITWNGGRVFYTASVKGRFTISRDNAKNTMYLQMNSLKPEDTAVYYCAADKDRRTDYLGHPVAYWGQGTQVTVSSGGGGSGGGGSGGGGSGGGGSGGGGSGGGGSGGGGSEVQLVESGGGLVQAGGSLTLSCAVSGSTFRINTMGWYRRAPGKQRELVAARDRGGYINYVDSVKGRFTVSRDNAKPTMYLQMNSLKPEDTAVYYCHAGTQDRTGRNFDRWGQGTQVTVSS
notes: Biparatopic: two VHH joined by a GlySer linker; also called 163D2-35GS-54B12; 163D2-54B12; not shown: C-terminal c-myc tag and His6 tag coded by pAX100
B3: CXCR20033 (bispecific antibody)
chain: EVQLVESGGGLVQPGGSLRLSCVASGRIFSSNAMGWFRQAPGKEREFVAAITWRSGGSAYYADSAKGRFTISRDNAKNTVYLQMNSLKPEDTAVYYCAAGGSSWLSFPPDYWGQGTQVTVSSGGGGSGGGGSGGGGSGGGGSGGGGSGGGGSGGGGSEVQLVESGGELVQPGGSLRLSCAASGSILTINAMGWYRQAPGKQRELVVRRTRGGSTTYQDSVKGRFTISADIAKKTMYLQMNSLKPEDTAVYYCMLDDRGGVYWGQGTQVTVSS
notes: Biparatopic: two VHH joined by a GlySer linker; also called 163E3-35GS-2B2; 163E3-2B2; not shown: C-terminal c-myc tag and His6 tag coded by pAX100
B4: CXCR20034 (bispecific antibody)
chain: EVQLVESGGGLVQAGGSLRLSCAASGRTFSDYAMGWFRQAPGKEREFVAAITWNGGRVFYTASVKGRFTISRDNAKNTMYLQMNSLKPEDTAVYYCAADKDRRTDYLGHPVAYWGQGTQVTVSSGGGGSGGGGSGGGGSGGGGSGGGGSGGGGSGGGGSEVQLVESGGELVQPGGSLRLSCAASGSILTINAMGWYRQAPGKQRELVVRRTRGGSTTYQDSVKGRFTISADIAKKTMYLQMNSLKPEDTAVYYCMLDDRGGVYWGQGTQVTVSS
notes: Biparatopic: two VHH joined by a GlySer linker; also called 163D2-35GS-2B2; 163D2-2B2; not shown: C-terminal c-myc tag and His6 tag coded by pAX100
B5: CXCR20035 (other)
chain: EVQLVESGGGLVQAGGSLTLSCAVSGSTFRINTMGWYRRAPGKQRELVAARDRGGYINYVDSVKGRFTVSRDNAKPTMYLQMNSLKPEDTAVYYCHAGTQDRTGRNFDRWGQGTQVTVSSGGGGSGGGGSGGGGSGGGGSGGGGSGGGGSGGGGSEVQLVESGGGLVQPGGSLRLSCVASGRIFSSNAMGWFRQAPGKEREFVAAITWRSGGSAYYADSAKGRFTISRDNAKNTVYLQMNSLKPEDTAVYYCAAGGSSWLSFPPDYWGQGTQVTVSS
notes: Biparatopic: two VHH joined by a GlySer linker; also called 54B12-35GS-163E3; 54B12-163E3; not shown: C-terminal c-myc tag and His6 tag coded by pAX100
B6: CXCR20014 (bispecific antibody)
chain: EVQLVESGGGLVQPGGSLRLSCVASGSIVRINTMGWYRQTPGKQRELVADITSGGNINYIDAVKGRFTISRDNTKNTVYLQMNSLKPEDTAVYYCNAEIVVLVGVWTQRARTGNYWGQGTQVTVSSGGGGSGGGGSGGGGSGGGGSGGGGSGGGGSGGGGSEVQLVESGGELVQPGGSLRLSCAASGSILTINAMGWYRQAPGKQRELVVRRTRGGSTTYQDSVKGRFTISADIAKKTMYLQMNSLKPEDTAVYYCMLDDRGGVYWGQGTQVTVSS
notes: Biparatopic: two VHH joined by a GlySer linker; also called 97A9-35GS-2B2; 97A9-2B2; not shown: C-terminal c-myc tag and His6 tag coded by pAX100
B7: CXCR20020 (bispecific antibody)
chain: EVQLVESGGGLVQAGESLRLSCAASGSTFDFKVMGWYRQPPGKQREGVAAIRLSGNMHYAESVKGRFTISKANAKNTVYLQMNSLRPEDTAVYYCKVNIRGQDYWGQGTQVTVSSGGGGSGGGGSGGGGSGGGGSGGGGSGGGGSGGGGSEVQLVESGGGLVQAGGSLRLSCAASGRTFSDYAMGWFRQAPGKEREFVAAITWNGGRVFYTASVKGRFTISRDNAKNTMYLQMNSLKPEDTAVYYCAADKDRRTDYLGHPVAYWGQGTQVTVSS
notes: Biparatopic: two VHH joined by a GlySer linker; also called 127D1-35GS-163D2; 127D1-163D2; not shown: C-terminal c-myc tag and His6 tag coded by pAX100

Assays:
Human CXCR2 [1] = molecular target: T1, Human CXCR2; experiment: FACS competition vs 3 nM FMAT-Blue Gro-α
Method: (§1) Multivalent anti-CXCR2Nanobodies were titrated against 3 nM FMAT-Blue-labeled Gro-α in the FACS ligand competition assay on human and cynomolgus CXCR2 (Table 14). On human CXCR2, blocking potencies range between double digit nM and sub-nM whereas on cynomolgus CXCR2, they range between single and double digit nM.

Cynomolgus CXCR2 [2] = molecular target: T2, Cynomolgus CXCR2; experiment: FACS competition vs 3 nM FMAT-Blue Gro-α
Method: as §1

Human CXCR2 [3] = molecular target: T1, Human CXCR2; experiment: cell-based or functional assay
Human CXCR2 [4] = molecular target: T1, Human CXCR2; experiment: cell-based or functional assay; remark: listed apart in the source
Cynomolgus CXCR2 [5] = molecular target: T2, Cynomolgus CXCR2; experiment: cell-based or functional assay
Human CXCR2 [6] = molecular target: T1, Human CXCR2; experiment: cell-based or functional assay; remark: listed apart in the source
Cynomolgus CXCR2 [7] = molecular target: T2, Cynomolgus CXCR2; experiment: cell-based or functional assay

Row | Binder | % inhibition of max (Human CXCR2 [1]) [%] | IC50 (Human CXCR2 [1]) [nM] | % inhibition of max (Cynomolgus CXCR2 [2]) [%] | IC50 (Cynomolgus CXCR2 [2]) [nM] | [35S]GTPγS % inhibition of max (GRO-α) (Human CXCR2 [3]) [%] | [35S]GTPγS IC50 (GRO-α) (Human CXCR2 [3]) [nM] | FLIPR % inhibition of max (Human CXCR2 [4]) [%] | FLIPR IC50 (GRO-α induced calcium release) (Human CXCR2 [4]) [nM] | FLIPR % inhibition of max (Cynomolgus CXCR2 [5]) [%] | FLIPR IC50 (GRO-α induced calcium release) (Cynomolgus CXCR2 [5]) [nM] | Human WBSC IC50 (rhGROα) (Human CXCR2 [6]) [nM] | Cynomologus WBSC IC50 (rhGROα) (Cynomolgus CXCR2 [7]) [nM] | [35S]GTPγS % inhibition of max (ENA-78) (Human CXCR2 [3]) [%] | [35S]GTPγS % inhibition of max (IL-8) (Human CXCR2 [3]) [%] | [35S]GTPγS IC50 (ENA-78) (Human CXCR2 [3]) [nM] | [35S]GTPγS IC50 (IL-8) (Human CXCR2 [3]) [nM] | Human Chemotaxis IC50 (rhGROα) (Human CXCR2 [6]) [nM]
1 | B1 | 98.5 | 1.63 | 96 | 3.8 | 100 | 1.38 | 100 | 21.9 | 100 | 17 | 0.43 | 1.72 |  |  |  |  | 
2 | B2 | 99.5 | 0.786 | 98.5 | 1.74 | 100 | 1.02 | 100 | 11.8 | 100 | 6.36 | 0.215 | 0.56 | 100 | 100 | 1.3 | 1.09 | 
3 | B3 | 100 | 0.65 | 99 | 2.2 | 100 | 1.01 | 100 | 17.9 | 100 | 4.46 | 0.345 | 0.42 |  |  |  |  | 0.15
4 | B4 | 100 | 0.8 | 99 | 2.55 | 100 | 0.995 | 100 | 11.8 | 100 | 9.47 | 0.29 | 0.44 |  |  |  |  | 0.143
5 | B5 | 99 | 1 | 99 | 3.23 | 100 | 0.844 | 100 | 10.2 | 100 | 8.72 | 0.24 | 0.43 | 100 | 100 | 1.17 | 0.717 | 
6 | B6 | 99.7 | 1.59 | 98.5 | 3.9 | 100 | 1.38 | 100 | 6.84 | 100 | 13.7 | 0.445 | 0.16 | 100 | 100 | 1.66 | 1.13 | 0.16
7 | B7 | 100 | 0.99 | 98.5 | 1.78 | 100 | 0.634 | 100 | 6.98 | 100 | 1.64 | 0.17 | 0.12 | 100 | 100 | 0.707 | 0.619 | 0.143
